In patent publication US20240109965A1 (Ablynx, published 2024):

T1: cynomolgus T cell receptor (TCRαβ) on primary cynomolgus T cells (cynomolgus)
T1 V domain 1: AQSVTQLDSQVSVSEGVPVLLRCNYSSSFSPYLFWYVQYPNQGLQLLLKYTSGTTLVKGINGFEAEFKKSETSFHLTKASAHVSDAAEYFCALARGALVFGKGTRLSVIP
T1 V domain 2: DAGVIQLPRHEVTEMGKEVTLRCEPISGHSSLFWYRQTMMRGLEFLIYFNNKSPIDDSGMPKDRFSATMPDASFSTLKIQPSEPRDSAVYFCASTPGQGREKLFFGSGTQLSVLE

T2: cynomolgus TCRαβ-zipper protein (cynomolgus)
T2 construct: also called cyTCR(AEA41865)-zipper; CynoTCRαβ-zipper
T2 TCR alpha: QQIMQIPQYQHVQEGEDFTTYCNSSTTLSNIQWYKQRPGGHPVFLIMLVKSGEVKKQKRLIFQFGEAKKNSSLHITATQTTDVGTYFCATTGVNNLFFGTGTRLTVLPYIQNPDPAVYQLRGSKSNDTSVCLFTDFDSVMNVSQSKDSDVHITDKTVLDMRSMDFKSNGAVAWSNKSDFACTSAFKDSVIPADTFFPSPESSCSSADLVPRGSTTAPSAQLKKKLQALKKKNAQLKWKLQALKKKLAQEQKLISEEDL
T2 TCR beta: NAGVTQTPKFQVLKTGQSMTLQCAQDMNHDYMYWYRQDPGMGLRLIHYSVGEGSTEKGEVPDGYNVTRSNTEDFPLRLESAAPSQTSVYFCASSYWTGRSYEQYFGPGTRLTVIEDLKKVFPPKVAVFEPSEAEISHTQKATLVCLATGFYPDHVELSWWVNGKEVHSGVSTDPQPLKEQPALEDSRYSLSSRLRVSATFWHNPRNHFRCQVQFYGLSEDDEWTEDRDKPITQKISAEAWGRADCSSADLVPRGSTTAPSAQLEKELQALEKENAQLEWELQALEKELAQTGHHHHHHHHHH


What was measured:
[1] = molecular target: T3, human T cell receptor (TCRαβ) on primary human T cells (human); assay: cell-based or functional assay
T3 sequence (P0DTU3 134-275, chain 1 of 2): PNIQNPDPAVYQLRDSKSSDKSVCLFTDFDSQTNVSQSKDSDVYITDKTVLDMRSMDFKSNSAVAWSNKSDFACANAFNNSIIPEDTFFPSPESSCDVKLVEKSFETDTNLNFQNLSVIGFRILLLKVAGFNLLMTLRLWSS
T3 sequence (P01850 other isoform, or with tags, fused parts or gaps, chain 2 of 2, further chain): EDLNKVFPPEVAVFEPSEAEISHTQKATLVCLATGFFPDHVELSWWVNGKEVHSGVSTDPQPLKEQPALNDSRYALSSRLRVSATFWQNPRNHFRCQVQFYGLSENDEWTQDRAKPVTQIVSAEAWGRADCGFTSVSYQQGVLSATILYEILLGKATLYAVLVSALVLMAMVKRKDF

[2] = molecular target: T3, human T cell receptor (TCRαβ) on …; assay: cell-based or functional assay; remark: listed apart in the source
[3] = molecular target: T1, cynomolgus T cell receptor (TCRαβ) on …; assay: cell-based or functional assay
[4] = molecular target: T2, cynomolgus TCRαβ-zipper protein; assay: SPR Biacore 8K+, multi-cycle kinetics, TCR-zipper immobilized
Protocol: Binding of purified TCE-CD123-ALB and CD123-TCE-ALB ISVD constructs to human TCRαβ-zipper protein (huTCR(2XN9)-zipper, in-house produced) and cynomolgus TCRαβ-zipper protein (cyTCR(AEA41865)-zipper, in-house produced) was probed by Surface Plasmon Resonance (SPR) (Cytiva, Biacore 8K+). Both targets were immobilized on a CM5 sensor chip using standard amine coupling chemistry. […] Each concentration of the ISVDs was injected for 180s and dissociation was assessed during 600s.
Data was double referenced by subtracting a reference flow cell (FC) and a blank buffer injection. Affinity constants (ka, kd and KD) were calculated applying the Langmuir 1:1 interaction model using the Biacore Insight Evaluation Software (Cytiva, Version 3.0.12.15655).

Binder	EC50 (M), human T cell mediated MOLM-13 cell killing, Donor #1 [1]	EC50 (M), human T cell mediated MOLM-13 cell killing, Donor #2 [1]	Potency (M) - human T cells, KG-1a cell killing [2]	Potency (M) - cyno T cells, KG-1a cell killing [3]	Kd [4]
T017001017 (bispecific antibody) EVQLVESGGGVVQPGGSLRLSCVASGYVHKINFYGWYRQAPGKEREKVAHISIGDQTDYADSAKGRFTISRDESKNTVYLQMNSLRPEDTAAYYCRALSRIWPYDYWGQGTLVTVSSGGGGSGGGSEVQLVESGGGVVQPGGSLRLSCAASGTTLDYYVIGWFRQAPGKEREGVSCISSSDGYTYYADSVKGRFTISRDNAKNTVYLQMNSLRPEDTALYYCATDPYYSSCHPFFADYEYDYWGQGTLVTVSSGGGGSGGGSEVQLVESGGGVVQPGGSLRLSCAASGFTFRSFGMSWVRQAPGKGPEWVSSISGSGSDTLYADSVKGRFTISRDNSKNTLYLQMNSLRPEDTALYYCTIGGSLSRSSQGTLVTVSS	4.5e-11 M	9.2e-11 M	2.1e-10 M	3.9e-11 M	13 nM
T017001021 (bispecific antibody) EVQLVESGGGVVQPGGSLRLSCVASGYVHKINFYGWYRQAPGKEREKVAHISIGDQTDYAESAKGRFTISRDESKNTVYLQMNSLRPEDTAAYYCRALSRIQPYDYWGQGTLVTVSSGGGGSGGGSEVQLVESGGGVVQPGGSLRLSCAASGTTLDYYVIGWFRQAPGKEREGVSCISSSDGYTYYADSVKGRFTISRDNAKNTVYLQMNSLRPEDTALYYCATDPYYSSCHPFFADYEYDYWGQGTLVTVSSGGGGSGGGSEVQLVESGGGVVQPGGSLRLSCAASGFTFRSFGMSWVRQAPGKGPEWVSSISGSGSDTLYADSVKGRFTISRDNSKNTLYLQMNSLRPEDTALYYCTIGGSLSRSSQGTLVTVSS	2.3e-10 M	2.1e-09 M	5.7e-09 M	9.4e-10 M	3400 nM
T017001019 (bispecific antibody) EVQLVESGGGVVQPGGSLRLSCVASGYVHKINFYGWYRQAPGKEREKVAHISIGDQTDYAESAKGRFTISRDESKNTVYLQMNSLRPEDTAAYYCRALSRITPYDYWGQGTLVTVSSGGGGSGGGSEVQLVESGGGVVQPGGSLRLSCAASGTTLDYYVIGWFRQAPGKEREGVSCISSSDGYTYYADSVKGRFTISRDNAKNTVYLQMNSLRPEDTALYYCATDPYYSSCHPFFADYEYDYWGQGTLVTVSSGGGGSGGGSEVQLVESGGGVVQPGGSLRLSCAASGFTFRSFGMSWVRQAPGKGPEWVSSISGSGSDTLYADSVKGRFTISRDNSKNTLYLQMNSLRPEDTALYYCTIGGSLSRSSQGTLVTVSS	1.5e-10 M	5.2e-10 M	2.3e-09 M	7.4e-10 M	1600 nM
T017001018 (bispecific antibody) EVQLVESGGGVVQPGGSLRLSCVASGYVHKINFYGWYRQAPGKEREKVAHISIGDQTDYAESAKGRFTISRDESKNTVYLQMNSLRPEDTAAYYCRALSRIYPYDYWGQGTLVTVSSGGGGSGGGSEVQLVESGGGVVQPGGSLRLSCAASGTTLDYYVIGWFRQAPGKEREGVSCISSSDGYTYYADSVKGRFTISRDNAKNTVYLQMNSLRPEDTALYYCATDPYYSSCHPFFADYEYDYWGQGTLVTVSSGGGGSGGGSEVQLVESGGGVVQPGGSLRLSCAASGFTFRSFGMSWVRQAPGKGPEWVSSISGSGSDTLYADSVKGRFTISRDNSKNTLYLQMNSLRPEDTALYYCTIGGSLSRSSQGTLVTVSS	3.3e-11 M	1e-10 M	2.7e-10 M	4e-11 M	32 nM
T017001020 (bispecific antibody) EVQLVESGGGVVQPGGSLRLSCVASGYVHKINFYGWYRQAPGKEREKVAHISIGDQTDYAESAKGRFTISRDESKNTVYLQMNSLRPEDTAAYYCRALSRISPYDYWGQGTLVTVSSGGGGSGGGSEVQLVESGGGVVQPGGSLRLSCAASGTTLDYYVIGWFRQAPGKEREGVSCISSSDGYTYYADSVKGRFTISRDNAKNTVYLQMNSLRPEDTALYYCATDPYYSSCHPFFADYEYDYWGQGTLVTVSSGGGGSGGGSEVQLVESGGGVVQPGGSLRLSCAASGFTFRSFGMSWVRQAPGKGPEWVSSISGSGSDTLYADSVKGRFTISRDNSKNTLYLQMNSLRPEDTALYYCTIGGSLSRSSQGTLVTVSS			7.6e-10 M		550 nM
